Measurements reported in patent US20130115635A1.

Tests used:
[1] = biological target: Peptide N-YEPEA-C; assay: ITC, 303.1 K
[2] = biological target: Peptide N-YEPEA-C; assay: ITC, 293.1 K
[3] = biological target: Peptide N-YEPEA-C; assay: ITC, 298.1 K
[4] = biological target: Peptide N-YEPEA-C; assay: ITC, 310.1 K

B1: NbSyn2 (VHH)
VHH: QGQLVESGGGSVQAGGSLRLSCAASGIDSSSYCMGWFRQRPGKEREGVARINGLGGVKTAYADSVKDRFTISRDNAENTVYLQMNSLKPEDTAIYYCAAKFSPGYCGGSWSNFGYWGQGTQVTVSS
Kd [1]: 460 nM
Stoichiometry [1]: 0.94
Kd [2]: 240 nM
Stoichiometry [2]: 0.98
Kd [3]: 190 nM
Stoichiometry [3]: 0.99
Kd [4]: 850 nM
Stoichiometry [4]: 0.92
